{
  "source": "patent US20170088602A1",
  "about": "(Bristol-Myers Squibb, published 2017)",
  "binders": {"B1": {"name": "ActRIIb-Fc (R&D Systems) (Fc fusion, human, UniProt Q13705 19-134, looked up, not shown: a dimerising Fc or GST)", "chain": "SGRGEAETRECIYYNANWELERTNQSGLERCEGEQDKRLHCYASWRNSSGTIELVKKGCWLDDFNCYDRQECVATEENPQVYFCCCEGNFCNERFTHLPEAGGPEVTYEPPPTAPT", "modifications": "Alexa Fluor 647 label in the HTRF assay", "notes": "also called rhActRIIb-Fc; Human Activin RIIB Fc Chimera"}, "B2": {"name": "human BMP-11 (GDF-11; R&D Systems) (ligand, UniProt O95390 299-407, looked up)", "chain": "NLGLDCDEHSSESRCCRYPLTVDFEAFGWDWIIAPKRYKANYCSGQCEYMFMQKYPHTHLVQQANPRGSAGPCCTPTKMSPINMLYFNDKQQIIYGKIPGMVVDRCGCS"}},
  "key": {"[1]": {"target": "T1, human Activin A (R&D Systems) (human, UniProt P08476 311-426)", "T1 sequence (looked up)": "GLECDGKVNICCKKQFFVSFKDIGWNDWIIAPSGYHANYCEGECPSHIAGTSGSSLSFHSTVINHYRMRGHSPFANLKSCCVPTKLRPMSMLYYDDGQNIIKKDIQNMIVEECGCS", "test": "cell-based or functional assay"}, "[2]": {"target": "T2, human myostatin (mature, recombinant; R&D Systems) (human, UniProt O14793 267-375)", "T2 construct": "biotinylated in the mRNA display selection; also called GDF-8; mature myostatin", "T2 sequence": "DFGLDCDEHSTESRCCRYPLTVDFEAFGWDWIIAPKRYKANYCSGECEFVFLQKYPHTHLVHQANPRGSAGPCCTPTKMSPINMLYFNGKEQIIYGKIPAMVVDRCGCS", "test": "SPR format A, 25C", "in_short": "(§1)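 Fc-fusion captured on an anti-human Fc antibody CM5 surface; anti-myostatin Adnectin injected over a concentration range in HBSP buffer. Regeneration used two 30 s pulses of 3M MgCl₂; reference-subtracted sensorgrams fitted to a 1:1 binding model.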"}, "[3]": {"target": "B2", "test": "SPR format A, 25C", "in_short": "as §1"}, "[4]": {"target": "T2, human myostatin (mature, recombinant; …)", "test": "cell-based or functional assay"}, "[5]": {"target": "B2", "test": "cell-based or functional assay"}, "[6]": {"target": "T2, human myostatin (mature, recombinant; …)", "test": "competitive HTRF (1889E01/myostatin/ActRIIb-Fc sandwich)", "source_text": "An HTRF assay was used to measure the binding affinities of anti-myostatin Adnectins to myostatin. […] The Eu-W 1024 labeled Streptavidin is used to bind biotinylated 1889E01. […] In the presence of a competitive Adnectin, the HTRF signal decreases."}, "[7]": {"target": "T2, human myostatin (mature, recombinant; …)", "test": "cell-based or functional assay", "remark": "listed apart in the source"}, "[8]": {"target": "T2, human myostatin (mature, recombinant; …)", "test": "competitive HTRF, alanine scan"}, "[9]": {"target": "T2, human myostatin (mature, recombinant; …)", "test": "HTRF competition binding assay, alanine mutant"}, "[10]": {"target": "T2, human myostatin (mature, recombinant; …)", "test": "SPR format B, 37C", "protocol": "(§2) A concentration range of anti-myostatin Adnectins was applied in HBSP running buffer. Regeneration of the chip surface between cycles was accomplished with 60 seconds of 10-50 mM NaOH. Kinetic traces of reference-subtracted sensorgrams were fit to a 1:1 binding model using Biaevaluation software. For Fc-formatted Adnectins, interaction kinetics are driven by avidity of bivalent Fc and dimeric myostatin even at low immobilization density. The data shown in Table 12 indicate that some of the Adnectins run in this SPR format bind myostatin and BMP-11 and also activin with similar affinities."}, "[11]": {"target": "B2", "test": "SPR format B, 37C", "protocol": "as §2"}, "[12]": {"target": "T1, human Activin A (R&D Systems)", "test": "SPR format B, 37C", "protocol": "as §2"}, "[13]": {"target": "T1, human Activin A (R&D Systems)", "test": "cell-based or functional assay", "remark": "listed apart in the source"}, "[14]": {"target": "T2, human myostatin (mature, recombinant; …)", "test": "KinExA, solution phase, global analysis", "protocol": "The affinities of PRD-1177 and ATI-1338 were also measured using the same assay format. Triplicate titrations of PRD-1177 were performed with myostatin at a monomer concentration of 1 nM (n=2) and 0.8 nM (n=1). Triplicate titrations of ATI-1338 were performed with myostatin at a monomer concentration of 5 nM (n=1), 1.6 nM (n=1), and 1.4 nM (n=1)."}, "[15]": {"target": "T1, human Activin A (R&D Systems)", "test": "SPR format A set-up", "source_text": "(§3) Anti-human Fc antibody (Biacore/GE) was immobilized on a Biacore CM5 chip via NHS/EDC coupling according to the manufacturer's instructions. […] A concentration range of anti-myostatin Adnectin was applied across all flow cells in HBSP running buffer. Regeneration of the chip surface between cycles was accomplished with two 30 second pulses of 3M MgCl₂. Kinetic traces of reference-subtracted sensorgrams were fit to a 1:1 binding model using Biaevaluation software."}, "[16]": {"target": "T2, human myostatin (mature, recombinant; …)", "test": "competitive ELISA: 10 nM myostatin preincubated with soluble ActRIIb-Fc, then binding to plate-coated ActRIIb-Fc detected with biotinylated anti-myostatin polyclonal; % competition", "protocol": "Competitive ELISA: Competitive binding assays to evaluate the ability of anti-myostatin Adnectins to compete with the ActRIIB receptor binding to myostatin were carried out using competitive ELISA. Nunc Maxisorp plates were coated with 2 μg/mL ActRIIb-Fc (R&D Systems) in 0.2M sodium carbonate pH 9.6 buffer overnight at 4° C. After washing with PBS-T (PBS containing 0.05% Tween-20), wells were blocked with OptEIA buffer (BD Biosciences) for 1 h at 25° C. with shaking. Myostatin (10 nM; R&D Systems) was preincubated with a concentration range of Adnectin or ActRIIb-Fc competitor (0.2 pM to 1 μM) in OptEIA buffer for 1 h at 25° C. with shaking. The blocked and coated assay plate was washed with PBS-T, and then myostatin/competitor mixtures were added and incubated for 30 min at 25° C. with shaking. The assay plate was washed with PBS-T, after which bound myostatin was detected with 1:1000 biotinylated goat anti-myostatin polyclonal (R&D Systems) diluted in OptEIA, for 1 h at 25° C. with shaking. After washing with PBS-T, 1:5000 Streptavidin-HRP (Thermo/Pierce) diluted in OptEIA was added, followed by incubation for 30 min at 25° C. with shaking. The assay plate was developed with TMB (BD Biosciences), quenched with 2N sulfuric acid, and absorbance read at A450."}, "ActRIIb-Fc (R&D Systems)": {"target": "B1", "test": "SPR format A set-up", "source_text": "as §3"}},
  "note": "Read-outs that look alike come from different tables or passages of the source.",
  "data": [
    {"binder": "ATI-1276 [40K 2-branch PEG] (designed binder, 40K 2-branch PEG on the Cys of the EGSGC tail, cysteine mutant of 2524_D09) MGVSDVPRDLEVVAATPTSLLISWYLPYPAHMNYYRITYGETGGNSPVQEFTVPGRGLTATISGLKPGVDYTITVYAVTLTKSQILHHRPISINYRTEGSGCHHHHHH", "values": [
      {"measurement": "ARE-luciferase IC50", "setting": "[1]", "result": 110, "unit": "nM"},
      {"measurement": "Kd", "setting": "[2]", "result": 4.18, "unit": "nM"},
      {"measurement": "Kd", "setting": "[3]", "result": 8.8, "unit": "nM"},
      {"measurement": "ARE-luciferase IC50", "setting": "[4]", "result": 0.08, "unit": "nM"},
      {"measurement": "ARE-luciferase IC50", "setting": "[5]", "result": 0.15, "unit": "nM"},
      {"measurement": "IC50", "setting": "[6]", "result": 0.28, "unit": "nM"}
    ]},
    {"binder": "ATI-1278 [40K 2-branch PEG] (designed binder, 40K 2-branch PEG on the Cys of the EGSGC tail, cysteine mutant of 2525_D05) MGVSDVPRDLEVVAATPTSLLISWSLPYAGHLNYYRITYGETGGNSPVQEFTVPGRGVTATISGLKPGVDYTITVYAVTLTKSQLIHYMPISINYRTEGSGCHHHHHH", "values": [
      {"measurement": "ARE-luciferase IC50", "setting": "[1]", "result": "> 2000", "unit": "nM"},
      {"measurement": "Kd", "setting": "[2]", "result": 6.04, "unit": "nM"},
      {"measurement": "Kd", "setting": "[3]", "result": 3.3, "unit": "nM"},
      {"measurement": "ARE-luciferase IC50", "setting": "[4]", "result": 0.27, "unit": "nM"},
      {"measurement": "ARE-luciferase IC50", "setting": "[5]", "result": 1.1, "unit": "nM"},
      {"measurement": "IC50", "setting": "[6]", "result": 0.54, "unit": "nM"}
    ]},
    {"binder": "3116_A06 R56A (designed binder) MGVSDVPRDLEVVAATPTSLLISWSLPHQGKANYYRITYGETGGNSPVQEFTVPGAGVTATISGLKPGVDYTITVYAVTVTDTGYLKYKPISINYRTEIDKPSQHHHHHH", "values": [
      {"measurement": "Myostatin ARE-luc IC50", "setting": "[7]", "result": "> 100", "unit": "nM"},
      {"measurement": "IC50", "setting": "[8]", "result": 55, "unit": "nM"},
      {"measurement": "IC50", "setting": "[9]", "result": "> 100", "unit": "nM"}
    ]},
    {"binder": "ATI-1339 [40K 4-branch PEG] (designed binder, 40K 4-branch PEG on the Cys of the EGSGC tail, cysteine mutant of 2987_H07) MGVSDVPRDLEVVAATPTSLLISWTLPHAGRAHYYRITYGETGGNSPVQEFTVPGRGVTATISGLKPGVDYTITVYAVTVTTTKVIHYKPISINYRTEGSGCHHHHHH", "values": [
      {"measurement": "Kd", "setting": "[10]", "result": 3.6, "unit": "nM"},
      {"measurement": "Kd", "setting": "[11]", "result": 6.9, "unit": "nM"},
      {"measurement": "Kd", "setting": "[12]", "result": 6.5, "unit": "nM"},
      {"measurement": "ARE-luciferase IC50", "setting": "[4]", "result": 0.28, "unit": "nM"},
      {"measurement": "ARE-luciferase IC50", "setting": "[5]", "result": 6, "unit": "nM"},
      {"measurement": "ARE-luciferase IC50", "setting": "[13]", "result": "> 1000", "unit": "nM"},
      {"measurement": "IC50", "setting": "[6]", "result": 0.28, "unit": "nM"}
    ]},
    {"binder": "ATI-1338 [40K 2-branch PEG] (designed binder, 40K 2-branch PEG on the Cys of the EGSGC tail, cysteine mutant of 2987_H07) MGVSDVPRDLEVVAATPTSLLISWTLPHAGRAHYYRITYGETGGNSPVQEFTVPGRGVTATISGLKPGVDYTITVYAVTVTTTKVIHYKPISINYRTEGSGCHHHHHH", "values": [
      {"measurement": "Kd", "setting": "[10]", "result": 1.9, "unit": "nM"},
      {"measurement": "Kd", "setting": "[11]", "result": 3.8, "unit": "nM"},
      {"measurement": "Kd", "setting": "[12]", "result": 4.6, "unit": "nM"},
      {"measurement": "ARE-luciferase IC50", "setting": "[4]", "result": 0.28, "unit": "nM"},
      {"measurement": "ARE-luciferase IC50", "setting": "[5]", "result": 5.8, "unit": "nM"},
      {"measurement": "ARE-luciferase IC50", "setting": "[13]", "result": "> 1000", "unit": "nM"},
      {"measurement": "Kd", "setting": "[14]", "result": 0.85, "unit": "nM"},
      {"measurement": "IC50", "setting": "[6]", "result": 0.24, "unit": "nM"}
    ]},
    {"binder": "B1", "values": [
      {"measurement": "binding result", "setting": "[15]", "result": "binds"},
      {"measurement": "IC50 (read off the curve)", "setting": "[16]", "result": "~1", "unit": "nM"}
    ]},
    {"binder": "B2", "values": [
      {"measurement": "binding result", "setting": "ActRIIb-Fc (R&D Systems)", "result": "binds"}
    ]}
  ]
}
